Laboratory results from PMC11490872, “Drug-resistant menin variants retain high binding affinity and interactions with MLL1” (The Journal of Biological Chemistry, 2024).
Numbering of substitutions follows the chain as printed. Read-outs that look alike come from different tables or passages of the source.

T1: menin^T349M (Homo sapiens, UniProt O00255, T344M)
T1 construct: The gene encoding full-length human menin was cloned into a pET32a expression vector; thioredoxin-His6 (cleaved yes); made in house; host or cells: E. coli BL21(DE3)
T1 sequence (O00255 1-610 T344M): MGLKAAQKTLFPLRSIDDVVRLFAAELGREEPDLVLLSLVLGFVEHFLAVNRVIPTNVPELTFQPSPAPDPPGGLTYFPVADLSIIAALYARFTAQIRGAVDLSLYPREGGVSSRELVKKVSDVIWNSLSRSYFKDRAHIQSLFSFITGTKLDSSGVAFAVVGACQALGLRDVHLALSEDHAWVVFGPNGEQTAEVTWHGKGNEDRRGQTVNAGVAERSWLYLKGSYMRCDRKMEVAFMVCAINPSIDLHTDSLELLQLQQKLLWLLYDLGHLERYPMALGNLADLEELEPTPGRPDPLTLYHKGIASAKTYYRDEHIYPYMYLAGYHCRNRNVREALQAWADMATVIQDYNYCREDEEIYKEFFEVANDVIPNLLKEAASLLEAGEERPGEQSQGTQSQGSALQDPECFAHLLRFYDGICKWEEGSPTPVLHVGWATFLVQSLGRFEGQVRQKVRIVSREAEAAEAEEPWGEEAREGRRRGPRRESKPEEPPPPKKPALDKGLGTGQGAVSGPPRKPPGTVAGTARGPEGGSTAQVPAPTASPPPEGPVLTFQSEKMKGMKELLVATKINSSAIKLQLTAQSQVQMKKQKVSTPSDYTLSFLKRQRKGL

T2: menin^WT (Homo sapiens, UniProt O00255)
T2 construct: Full-length human menin was expressed in BL21(DE3) cells; thioredoxin-His6 (cleaved yes); made in house; host or cells: E. coli BL21(DE3)
T2 sequence (O00255 1-610): T1 sequence (O00255 1-610 T344M) with M344T

T3: menin^M327I (Homo sapiens, UniProt O00255, M322I)
T3 construct: The gene encoding full-length human menin was cloned into a pET32a expression vector; thioredoxin-His6 (cleaved yes); made in house; host or cells: E. coli BL21(DE3)
T3 sequence (O00255 1-610 M322I): T1 sequence (O00255 1-610 T344M) with M322I, M344T

B1: MLL1^160: N-terminal 160 amino acids of human MLL1, Cys2 mutated to alanine, recombinant (protein)
chain: MAHSARWRFPARPGTTGGGGGGGRRGLGGAPRQRVPALLLPPGPPVGGGGPGAPPSPPAVAAAAAAAGSSGAGVPGGAAAASAASSSSASSSSSSSSSASSGPALLRVGPGFDAALQVSAAIGTNLRRFRAVFGESGGGGGSGEDEQFLGFGSDEEVRVR
modifications: The printed 'Cys2' is the single N-terminal cysteine, Cys5 in the entry (peptide S4-A5-R6); Trx-His6 tag cleaved

What was measured:
[1] = test system: patients with MLL1-r and NPM1-mut acute leukemias; details: cited from earlier work
menin M327I = test system: menin M327I; parameters: method as in PMID 36922589; details: versus wild-type menin; cited from earlier work
menin^T349M = target: T1, menin^T349M; test: ITC binding of MLL1 fragments to menin^T349M
Description: (§1) Menin and MLL1 fragments were dialyzed at 4 °C against a 50 mM sodium phosphate pH 7.5, 50 mM NaCl, 1 mM TCEP buffer, and degassed prior to measurement. The titrations were performed using the VP-ITC system (MicroCal) at 25 °C. The calorimetric cell, which contained menin (concentrations in the 5–10 μM range), was titrated with the MLL1^160 and MLL1^4-15 derived peptides (concentration range 40–100 μM) injected in 10-μL aliquots. Data was analyzed using Origin 7.0 (OriginLab) to obtain Kd, stoichiometry, entropy, and enthalpy ([2]). Experiments with WT, M327I, T349M, and G331R menin and MLL1^160 or MLL1^4-15 were run in duplicate. Experiments with G331D menin and MLL1^160 were run in duplicate while experiments with G331D and MLL1^4-15 were run in quadruplicate.

menin^WT = target: T2, menin^WT; test: ITC binding of MLL1 fragments to menin^WT
Description: as §1

menin^M327I = target: T3, menin^M327I; test: ITC binding of MLL1 fragments to menin^M327I
Description: as §1

[2] = Phase 1/2, AML patients with KMT2A (MLL1) rearrangements and NPM1 mutations
[3] = ITC, representative binding isotherm Fig. 1A, 25 °C, read-out: Kd

Molecule | complete remission [1, 2] [%] | overall response rate [1, 2] [%] | rate of complete remission ([1]; phase 1/2 first-in-human trials, MLL1-r and NPM1-mut acute leukemias) | reduction of binding by M327I mutation (menin M327I) [fold] | Kd (menin^T349M; ITC summary Fig. 1B, values marked *, n = 2, read-out: T349M Kd (nM), ITC) [nM] | Kd (menin^T349M; [3]) [nM] | Kd (menin^WT; ITC summary Fig. 1B, values marked *, n = 2, read-out: WT Kd (nM), ITC) [nM] | Kd (menin^WT; [3]) [nM] | Kd (menin^M327I; ITC summary Fig. 1B, values marked *, n = 2, read-out: M327I Kd (nM), ITC) [nM] | Kd (menin^M327I; [3]) [nM]
CCN(C(=O)c1cc(F)ccc1Oc1cncnc1N1CC2(CCN(C[C@H]3CC[C@H](NS(=O)(=O)CC)CC3)CC2)C1)C(C)C [Revumenib, reference compound] | ~35 | ~45 | over 30% | 51 | – | – | – | – | – | –
B1 | – | – | – | – | 2.6 ± 0.7 | 2.6 ± 0.7 | 0.5 ± 0.3 | 0.5 ± 0.2 | 2.2 ± 0.6 | 2.2 ± 0.6
